In patent EP4389150A1, “CONJUGATE COMPOUNDS AND THEIR USE IN CANCER TREATMENT AND DIAGNOSIS” (Technische Universität München, priority 2022, dated 2024):
Like-named read-outs stand apart in the source and are kept apart here. Where a SMILES comes first, the peptide text is derived from it. [ ]: non-standard residue; d: D form. The star is where a group is joined. X1 = CN(Cc1ccc(-c2[nH]c3cc(F)cc4c3c2CCNC4=O)cc1)C(=O)CCS*; EuK = O=C(O)CC[C@H](NC(=O)N[C@@H](CCCCN*)C(=O)O)C(=O)O; Ahx = NCCCCCC(=O)O; Mpa = O=C(O)CCS

Assays:
[1] = molecular target: prostate-specific membrane antigen (PSMA) (UniProt Q04609); test: competition with [68Ga]-PSMA-617 (0.4 nM) on LNCaP cells, 60 min on ice
[2] = molecular target: prostate-specific membrane antigen (PSMA) (UniProt Q04609); test: cell uptake of 68Ga-labelled ligand (0.4 nM) on LNCaP cells, gamma counting
LNCaP cells = test: Binding and internalization (cell uptake) of 68Ga-labelled PSMA ligands in LNCaP cells; type: cell-based
Method: To determine ligand internalization, LNCaP cells were seeded in a 96 V-bottom well plate at a density of 100,000 cells/well in 5% BSA (w/v)/RPMI medium (100 µL/well) and incubated for 30 min at 37 °C. Afterwards, solutions (25 µL/well) of either 5% BSA (w/v)/RPMI medium or of 2-PMPA (final concentration: 10 µM) in 5% BSA (w/v)/RPMI medium for blockade were added. Then, a solution of the ^68Ga-labeled PSMA-ligand (25 µL/well; 0.4 nM final concentration; AM = 26-30 MBq/nmol) was added to all wells, and the cells were incubated for 5, 15, 30, and 60 min, respectively, at 37 °C. Hereby, each time point was performed in triplicates and each experiment was repeated three times. The internalization process was terminated by placing the plate for 5 min on ice. The free radioligand was obtained by centrifugation of the plate at 600 g for 3 min and removal of the supernatant. Each well was then washed with ice-cold PBS and the fractions of the first two steps were combined. For removal of cell-bound PSMA-ligand, the cells were treated in a next step with ice-cold 2-PMPA-solution (10 µM in PBS; 150 µL/well; 15 min on ice), centrifuged (600 g, 3 min), and washed with ice-cold PBS (150 µL/well). The fractions were again combined. For the analysis of internalized radioligand, the fractions of a 1.0 N NaOH (150 µL/well; 10 min on ice) treatment as well as a concomitant washing step with 1.0 N NaOH (150 µL/well) were pooled. Free, surface bound, and internalized activity, respectively, was measured in a γ-counter.

PSMA = molecular target: T1, PSMA (Homo sapiens, UniProt Q04609); test: IC50 determination by competition with [68Ga]-PSMA-617 on LNCaP cells; type: binding; settings: [68Ga]-PSMA-617 0.4 nM, 60 min on ice, natGa-labelled ligands
T1 construct: endogenous in cells; host or cells: LNCaP cells
Method: In the meantime, dilution series of the compounds were prepared in 1% BSA (w/v)/HBSS in a separate 96 U-bottom deep well plate ranging from 12 µM to 153.6 pM in 1:5 dilution steps. Next, solutions (25 µL/well) of either 1% BSA (w/v)/HBSS (control) or of the respective dilution series were transferred to the LNCaP cells containing plate. Hereby, each concentration was pipetted in triplicates and each experiment was repeated three times. Subsequently, [^68Ga]-PSMA-617 (25 µL/well; 0.4 nM final concentration; AM = 26-30 MBq/nmol) in 1% BSA (w/v)/HBSS was added to all wells and the plate was incubated for 60 min on ice. Afterwards, the experiment was terminated by centrifugation at 600 g for 3 min and removal of the supernatant. The cells were then washed with ice-cold HBSS (150 µL/well), centrifuged (600 g, 3 min), and the supernatant as well as the washing fraction were combined, representing the amount of free, unbound radioligand. Bound radioligand was obtained by lysis of the cells with 1.0 N NaOH (150 µL/well; 10 min on ice). Afterwards, the plate was washed a second time with 1.0 N NaOH (150 µL/well). Hereby, the washing step was combined with the NaOH fraction. The quantification of bound and free radioligand was finally accomplished via measuring the samples in a γ-counter.

[3] = Lipophilicity, n-octanol/PBS distribution coefficient; type: physicochemical
Method: Lipophilicity of the conjugates was determine after radiolabeling with ^68Ga. The PSMA ligand (0.80 MBq) was dissolved in PBS (500 µL/pH 7.4) in a reaction vial (1.5 mL; n = 10). Afterwards, n-octanol was added (500 µL) and the mixture was rigorously vortexed for 3 min. Subsequent centrifugation (Biofuge 15, Heraus Sepatech, Osterode, Germany) at 13,000 rpm for 5 min led to a phase separation. After measuring 100 µL of each phase in a γ-counter, the distribution coefficient (logD(O/PBS)) was calculated with Microsoft Excel.

[4] = test system: PC3-PIP/PC3-flu bilateral tumor model; type: in vivo, Athymic nude mice; settings: for biodistribution profile: 1 h post-injection; for tumor uptake (PET/CT, biodistribution): PSMA+ PC3-PIP versus PSMA- PC3-Flu tumors
Source text: In vivo experiment. Athymic nude mice were subcutaneously injected with 4×10^6 PC3-PIP (PSMA+) and 3×10^6 PC3-Flu (PSMA-) cells to produce a bilateral tumor model.
At the completion of the imaging study, mice were euthanized and organs were resected, weight, and analyzed by gamma counting to determine tracer biodistribution. Data are ported as percentage of injected activity per gram of tissue (%IA/g).
At the completion of the imaging study, mice were euthanized and organs were resected, weighted, and analyzed by gamma counting to determine tracer biodistribution. Biodistribution data are reported as percentage of injected dose per gram of tissue (%ID/g).

Serum stability = type: in vitro ADME; settings: 37 °C
Method: For serum stability analysis, 13.5 µL human serum were mixed with 1.5 µL of an aqueous solution of the test compound (200 µM final concentration) and incubated at 37 °C for 0.5, 1, 2, and 24 h, respectively. Afterwards, 25.0 µL MeCN were added, the suspension was centrifuged (14,000 rpm, 30 min, 4 °C), the supernatant was recovered, and finally analyzed by HPLC-ESI-MS using a linear elution gradient from 10 to 95% (v/v) MeCN/0.1% (v/v) TFA in water/0.1% (v/v) TFA for 15 min.

[5] = 68Ga-labelled, 2 nmol via tail vein, 60 min p.i.

T1 sequence (Q04609 whole entry): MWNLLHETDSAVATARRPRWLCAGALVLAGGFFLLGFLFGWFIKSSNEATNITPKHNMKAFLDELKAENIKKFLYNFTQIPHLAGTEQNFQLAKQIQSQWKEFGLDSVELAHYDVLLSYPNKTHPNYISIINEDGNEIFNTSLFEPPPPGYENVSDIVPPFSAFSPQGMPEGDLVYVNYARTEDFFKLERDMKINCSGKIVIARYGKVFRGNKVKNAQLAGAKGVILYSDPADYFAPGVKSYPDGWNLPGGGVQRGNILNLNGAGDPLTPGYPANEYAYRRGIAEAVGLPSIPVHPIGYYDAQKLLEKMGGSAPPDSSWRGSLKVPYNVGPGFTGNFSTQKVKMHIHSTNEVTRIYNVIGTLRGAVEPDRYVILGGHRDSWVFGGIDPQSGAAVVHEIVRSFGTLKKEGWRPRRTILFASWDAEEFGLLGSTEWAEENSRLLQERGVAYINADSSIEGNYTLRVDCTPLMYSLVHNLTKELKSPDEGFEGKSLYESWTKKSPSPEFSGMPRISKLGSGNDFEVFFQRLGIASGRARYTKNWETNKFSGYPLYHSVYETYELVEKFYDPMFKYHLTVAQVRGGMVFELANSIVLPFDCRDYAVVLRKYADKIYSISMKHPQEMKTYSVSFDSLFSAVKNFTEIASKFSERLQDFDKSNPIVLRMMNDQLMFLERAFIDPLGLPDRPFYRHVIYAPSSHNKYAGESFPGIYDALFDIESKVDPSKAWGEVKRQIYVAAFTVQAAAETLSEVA
Chain of prostate-specific membrane antigen (PSMA) (Q04609 whole entry): as above

Compound	IC50 [1] [nM]	% bound of total applied dose [2] [%]	IC50 (PSMA) [nM]	also measured
PSMARuc-18: Ruc-SS-MMC-D-Asp-D-Asp-β-Ala-TXA-L-Nal-D-Lys-EuE (peptide)	0.69	6.54	–	–
PSMARuc-17: DOTAGA-D-Lys(Ruc-SS)-D-Asp-D-Asp-D-Tyr-D-Phe-D-Phe-Ahx-D-Lys-EuE (peptide)	1.38	5.84	–	–
PSMARuc-10: DOTAGA-D-Lys(Ruc-SS)-D-Asp-D-Tyr-D-Phe-D-Phe-Ahx-KuE (peptide)	1.34	6.18	–	–
CN(Cc1ccc(-c2[nH]c3cc(F)cc4c3c2CCNC4=O)cc1)C(=O)CCSSCCC(=O)NCCCC[C@@H](NC(=O)CCC(C(=O)O)N1CCN(CC(=O)O)CCN(CC(=O)O)CCN(CC(=O)O)CC1)C(=O)N[C@H](CC(=O)O)C(=O)NCCC(=O)NC[C@H]1CC[C@H](C(=O)N[C@@H](Cc2ccc3ccccc3c2)C(=O)NCCCC[C@H](NC(=O)N[C@@H](CCC(=O)O)C(=O)O)C(=O)O)CC1 (some centres unmarked) [Conjugate 9]	–	–	3.03 ± 0.2	% bound of total applied dose (LNCaP cells): 8.00 ± 1.27%; logD ([3]; pH 7.4): -2.1 ± 0.24; biodistribution profile ([4]; 68Ga-labelled): uptake is limited to PSMA+ tumors and kidneys
CN(Cc1ccc(-c2[nH]c3cc(F)cc4c3c2CCNC4=O)cc1)C(=O)CCSSCCC(=O)N[C@H](CC(=O)O)C(=O)N[C@H](Cc1ccc(O)cc1)C(=O)N[C@H](Cc1ccccc1)C(=O)N[C@H](Cc1ccccc1)C(=O)NCCCCCC(=O)NCCCC[C@H](NC(=O)N[C@@H](CCC(=O)O)C(=O)O)C(=O)O [Conjugate 8] ([Mpa](X1)[dD][dY][dF][dF][Ahx]-EuK)	–	–	1.58 ± 0.94	logD (n-oct/PBS) ([3]; pH 7.4): -2.83 ± 0.07
O=C(O)CC[C@H](NC(=O)N[C@@H](CCCCNC(=O)[C@H](Cc1ccc2ccccc2c1)NC(=O)[C@H]1CC[C@H](CNC(=O)CN2CCN(CC(=O)O)CCN(CC(=O)O)CCN(CC(=O)O)CC2)CC1)C(=O)O)C(=O)O [PSMA-617]	–	–	1.75 ± 0.16	% bound of total applied dose (LNCaP cells; 60 min incubation with 0.4 nM 68Ga-labelled conjugates): 10.23 ± 0.86%; logD ([3]; n-octanol/PBS pH 7.4, after radiolabeling with 68Ga, read-out: logD (n-oct/PBS)): -3.62 ± 0.49
CN(Cc1ccc(-c2[nH]c3cc(F)cc4c3c2CCNC4=O)cc1)C(=O)CCSSCCC(=O)NCCCC[C@@H](NC(=O)CCC(C(=O)O)N1CCN(CC(=O)O)CCN(CC(=O)O)CCN(CC(=O)O)CC1)C(=O)N[C@H](CC(=O)O)C(=O)N[C@H](Cc1ccc(O)cc1)C(=O)N[C@H](Cc1ccccc1)C(=O)N[C@@H](Cc1ccc2ccccc2c1)C(=O)NCCCCCC(=O)NCCCC[C@H](NC(=O)N[C@@H](CCC(=O)O)C(=O)O)C(=O)O (single isomer, unassigned) [Conjugate 11]	–	–	5.34 ± 1.45	% bound of total applied dose (LNCaP cells): 6.45 ± 1.16%; logD ([3]; pH 7.4): -3.11 ± 0.08; stable (intact) after incubation in human serum (Serum stability; 2 hours): 93%; intact after incubation in human serum (Serum stability; 24 hours): 74%; biodistribution profile ([4]; 68Ga-labelled): uptake limited to PSMA-expressing tumors and kidneys; tumor uptake (PET/CT, biodistribution) ([4]; 60 min p.i.): uptake in PSMA+ PC3-PIP tumors and no accumulation in PSMA- PC3-Flu tumors
PSMARuc-9: DOTAGA-D-Lys(Ruc-SS)-D-Asp-β-Ala-TXA-L-Nal-KuE (peptide)	3.03	8	–	–
CN(Cc1ccc(-c2[nH]c3cc(F)cc4c3c2CCNC4=O)cc1)C(=O)CCSSCCC(=O)NC[C@H]1CC[C@H](C(=O)N[C@@H](Cc2ccc3ccccc3c2)C(=O)NCCCC[C@H](NC(=O)N[C@@H](CCC(=O)O)C(=O)O)C(=O)O)CC1 [Conjugate 7]	–	–	9.52 ± 2.41	logD (n-oct/PBS) ([3]; pH 7.4): -2.98 ± 0.21
PSMA-617	–	10.2	–	–
PSMARuc-12: DOTAGA-D-Lys(Ruc-SS)-D-Asp-D-Tyr-D-Phe-D-Phe-Ahx-Ahx-KuE (peptide)	2.12	3.48	–	–
Ruc-SS-TXA-L-Nal-KuE (PSMARuc-7) (peptide)	9.52	–	–	–
PSMARuc-15: Ruc-SS-MMC-D-Asp-D-Asp-D-Tyr-D-Phe-D-Phe-Ahx-Ahx-KuE (peptide)	4.28	6.5	–	–
PSMARuc-11: DOTAGA-D-Lys(Ruc-SS)-D-Asp-D-Tyr-D-Phe-L-Nal-Ahx-KuE (peptide)	5.34	6.45	–	–
CN(Cc1ccc(-c2[nH]c3cc(F)cc4c3c2CCNC4=O)cc1)C(=O)CCSSCCC(=O)NCCCCN1CCN(CC(=O)O)CCN(C(CCC(=O)N[C@H](CC(=O)O)C(=O)N[C@H](CC(=O)O)C(=O)NCCC(=O)NC[C@H]2CC[C@H](C(=O)N[C@@H](Cc3ccc4ccccc4c3)C(=O)NCCCC[C@H](NC(=O)N[C@@H](CCC(=O)O)C(=O)O)C(=O)O)CC2)C(=O)O)CCN(CC(=O)O)CC1 (some centres unmarked) [Conjugate 14]	–	–	2.19 ± 0.37	% bound of total applied dose (LNCaP cells): 6.46 ± 0.98%; logD ([3]; pH 7.4): -3.42 ± 0.15
CN(Cc1ccc(-c2[nH]c3cc(F)cc4c3c2CCNC4=O)cc1)C(=O)CCSSCCC(=O)NCCCCN1CCN(CC(=O)O)CCN(C(CCC(=O)N[C@H](CC(=O)O)C(=O)N[C@H](CC(=O)O)C(=O)N[C@H](Cc2ccc(O)cc2)C(=O)N[C@H](Cc2ccccc2)C(=O)N[C@H](Cc2ccccc2)C(=O)NCCCCCC(=O)NCCCCCC(=O)NCCCC[C@H](NC(=O)N[C@@H](CCC(=O)O)C(=O)O)C(=O)O)C(=O)O)CCN(CC(=O)O)CC1 (some centres unmarked) [Conjugate 15]	–	–	4.28 ± 0.95	% bound of total applied dose (LNCaP cells): 6.50 ± 0.50%; logD ([3]; pH 7.4): -3.4 ± 0.07
PSMARuc-14: Ruc-SS-MMC-D-Asp-D-Asp-β-Ala-TXA-L-Nal-KuE (peptide)	2.19	6.46	–	–
PSMARuc-13: DOTAGA-D-Lys(Ruc-Sub)-D-Asp-β-Ala-TXA-L-Nal-KuE (peptide)	0.67	10.8	–	–
PSMARuc-16: DOTAGA-D-Lys(Ruc-SS)-D-Asp-D-Asp-β-Ala-TXA-L-Nal-D-Lys-EuE (peptide)	0.82	5.32	–	–
CN(Cc1ccc(-c2[nH]c3cc(F)cc4c3c2CCNC4=O)cc1)C(=O)CCSSCCC(=O)NCCCCN1CCN(CC(=O)O)CCN(C(CCC(=O)N[C@H](CC(=O)O)C(=O)N[C@H](CC(=O)O)C(=O)NCCC(=O)NC[C@H]2CC[C@H](C(=O)N[C@@H](Cc3ccc4ccccc4c3)C(=O)NCCCC[C@@H](NC(=O)CC[C@H](NC(=O)N[C@@H](CCC(=O)O)C(=O)O)C(=O)O)C(=O)O)CC2)C(=O)O)CCN(CC(=O)O)CC1 (single isomer, unassigned) [Conjugate 18]	–	–	–	PiP/muscle ratios [4, 5]: > 25; PiP:Flu ratios [4, 5]: > 8; tumor uptake (PET/CT, biodistribution) ([4]; 60 min p.i.): selective uptake in PC3-PiP tumors and low uptake in PC3-Flu tumors and other organs
Ruc-SS-D-Asp-D-Tyr-D-Phe-D-Phe-Ahx-KuE (PSMARuc-8) (peptide)	1.58	–	–	–
